Data on 46 molecules can be found in US20200361992A1 (PROTAGONIST THERAPEUTICS, published 2020).

Starred links: 1 amine or outer side, 2 acyl side, 3 side chain; linkers in the order of their positions; H or OH if unused. Positions of bridges follow the written chain, without caps; N, C: chain ends. Non-standard residues stand in square brackets, D forms with d. Groups on a side chain read outwards from the residue. Primed or numbered codes have the meaning given here. *: point of attachment. PEG4′ = bifunctional PEG linker with 4 polyethylene glycol units; PEG12 = NCCOCCOCCOCCOCCOCCOCCOCCOCCOCCOCCOCCOCCC(=O)O; Phe(4-tBu) = CC(C)(C)c1ccc(C[C@H](N)C(=O)O)cc1; Dip = N[C@H](C(=O)O)C(c1ccccc1)c1ccccc1; γGlu = O=C(O)[C@H](CCC(=O)[*:2])N[*:1]; Palmitoyl = CCCCCCCCCCCCCCCC(=O)*; β3hF = N[C@H](CC(=O)O)Cc1ccccc1; Isovaleryl = CC(C)CC(=O)*; hSer = N[C@@H](CCO)C(=O)O; Nle = CCCC[C@H](N)C(=O)O; PEG1′ = not defined here; PEG2′ = not defined here; PEG8′ = not defined here; dDap = NC[C@@H](N)C(=O)O; Dap = NC[C@H](N)C(=O)O; Npc = nipecotic acid; Ahx = NCCCCCC(=O)O

First the molecules themselves.
T1: human ferroportin (SLC40A1) fused with GFP, stably expressed in HEK293 cells (human, UniProt Q9NP59 1-571)
T1 sequence (looked up): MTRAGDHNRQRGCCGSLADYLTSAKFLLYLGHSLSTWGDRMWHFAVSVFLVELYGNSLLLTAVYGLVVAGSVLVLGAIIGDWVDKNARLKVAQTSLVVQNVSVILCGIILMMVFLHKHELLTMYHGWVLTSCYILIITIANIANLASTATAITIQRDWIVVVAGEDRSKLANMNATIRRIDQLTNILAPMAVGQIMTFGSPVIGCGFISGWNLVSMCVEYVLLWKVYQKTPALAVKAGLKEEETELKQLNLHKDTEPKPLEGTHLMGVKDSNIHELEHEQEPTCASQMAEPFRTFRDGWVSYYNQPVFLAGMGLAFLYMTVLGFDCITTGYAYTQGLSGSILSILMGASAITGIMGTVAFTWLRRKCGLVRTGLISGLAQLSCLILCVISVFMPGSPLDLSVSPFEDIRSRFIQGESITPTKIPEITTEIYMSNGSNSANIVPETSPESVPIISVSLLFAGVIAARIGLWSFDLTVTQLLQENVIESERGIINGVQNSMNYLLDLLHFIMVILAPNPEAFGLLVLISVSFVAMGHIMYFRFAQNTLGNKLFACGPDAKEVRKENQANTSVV

B1: Compd ID 161 (peptide)
peptide: DTHXPCIKXKC
modifications: Isovaleric acid-DTH-[Dpa]-PCI-[(D)Lys]-[b-hPhe]-[Lys(dDap-Palm)]-C-NH2
B2: Ref. Compd 1 (peptide)
peptide: DTHFPCIKFKPRSKGCK
modifications: Isovaleric acid-DTHFPCIKF-Lys[PEG11-Palm]-PRSKGCK-NH2
B3: Compd ID 71 (peptide)
peptide: Isovaleryl-DTHFPCI[dK]FK([PEG12-Palmitoyl])PRC-NH2
modifications: disulfide 6-13 (inferred)
B4: Compd ID 13 (peptide)
peptide: Isovaleryl-DTHFPCIQFK([PEG12-Palmitoyl])C-NH2
modifications: disulfide 6-11 (inferred)
B5: Compd ID 150 (peptide)
peptide: Isovaleryl-DTH[Dip][Npc]CI[dK][Phe(4-tBu)]K([PEG12-Palmitoyl])C[dK]-NH2
modifications: disulfide 6-11 (inferred)
B6: Compd ID 27 (peptide)
peptide: Isovaleryl-DTHFPCI[dK]FK([γGlu-Palmitoyl])C-NH2
modifications: disulfide 6-11 (inferred)
B7: Compd ID 69 (peptide)
peptide: DTHFPCIKFKC
modifications: Isovaleric acid-DTHFPC(SH)I-[Lys]-[Phe]-Lys[PEG11-Palm]-C(SH)-NH2
B8: Compd ID 157 (peptide)
peptide: DTHXPCIKXKKC
modifications: Isovaleric acid-DTH-[Dpa]-PCI-[(D)Lys]-[b-hPhe]-[Lys-Peg11*]-[(D)Lys]-C-NH2 (*PEG11-OMe)
B9: Compd ID 162 (peptide)
peptide: Isovaleryl-DTH[Dip]PCI[dK][β3hF][Dap]([Dap-Palmitoyl])C-NH2
modifications: disulfide 6-11 (inferred)
B10: Compd ID 70 (peptide)
peptide: Isovaleryl-DTHFPCI[dK]FK([PEG12-Palmitoyl])PC-NH2
modifications: disulfide 6-12 (inferred)
B11: Compd ID 67 (peptide)
peptide: DTHFPCIKFKPC
modifications: Isovaleric acid-DTHFPC(SH)I-[Lys]-[Phe]-Lys[PEG11-Palm]-Pro-C(SH)-NH2
B12: Compd ID 166 (peptide)
peptide: DTHXPCIKXKKC
modifications: Isovaleric acid-DTH-[Dpa]-PCI-[(D)Lys-Peg11*]-[b-hPhe]-[Lys(Ahx-Palm)]-[(D)Lys-Peg11*]-C-NH2 (*PEG11-OMe)
B13: Compd ID 163 (peptide)
peptide: Isovaleryl-DTH[Dip]PCI[dK][β3hF][Dap]([dDap-Palmitoyl])C-NH2
modifications: disulfide 6-11 (inferred)
B14: Compd ID 29 (peptide)
peptide: Isovaleryl-DTHFPCI[dK]FK([PEG2′-Ahx-Palmitoyl])C-NH2
modifications: disulfide 6-11 (inferred)
B15: Compd ID 160 (peptide)
peptide: DTHXPCIKXKC
modifications: Isovaleric acid-DTH-[Dpa]-PCI-[(D)Lys]-[b-hPhe]-[Lys(Dap-Palm)]-C-NH2
B16: Compd ID 30 (peptide)
peptide: Isovaleryl-DTHFPCI[dK]FK(Palmitoyl)C-NH2
modifications: disulfide 6-11 (inferred)
B17: Compd ID 156 (peptide)
peptide: DTHXPCIKXKKC
modifications: Isovaleric acid-DTH-[Dpa]-PCI-[(D)Lys]-[b-hPhe]-[Lys(Peg11-Lauryl)]-[(D)Lys]-C-NH2
B18: Compd ID 149 (peptide)
peptide: Isovaleryl-DTH[Dip][Npc]CI[dK][Phe(4-tBu)]K([PEG12-Palmitoyl])[dK]C-NH2
modifications: disulfide 6-12 (inferred)
B19: Compd ID 3 (peptide)
peptide: DTHFPCIKFKPRSKGC
modifications: Isovaleric acid-DTHFPCIKF-Lys[PEG11-Palm]-PRSKGC-NH2
B20: Compd ID 15 (peptide)
peptide: Isovaleryl-DTHFPCI[Nle]FK([PEG12-Palmitoyl])C-NH2
modifications: disulfide 6-11 (inferred)
B21: Compd ID 164 (peptide)
peptide: Isovaleryl-DTH[Dip]PCI[dK][β3hF][Dap]([dDap-Palmitoyl])C-NH2
modifications: disulfide 6-11 (inferred)
B22: Compd ID 12 (peptide)
peptide: Isovaleryl-DTHFPCI[hSer]FK([PEG12-Palmitoyl])C-NH2
modifications: disulfide 6-11 (inferred)
B23: Compd ID 11 (peptide)
peptide: DTHFPCIXFKC
modifications: Isovaleric acid-DTHFPCI-[Orn]-[Phe]-Lys[PEG11-Palm]-C-NH2
B24: Compd ID 14 (peptide)
peptide: Isovaleryl-DTHFPCIK(Ac)FK([PEG12-Palmitoyl])C-NH2
modifications: disulfide 6-11 (inferred)
B25: Compd ID 25 (peptide)
peptide: Isovaleryl-DTHFPCI[dK]FK([Ahx-Palmitoyl])C-NH2
modifications: disulfide 6-11 (inferred)
B26: Compd ID 28 (peptide)
peptide: Isovaleryl-DTHFPCI[dK]FK([γGlu-PEG2′-Palmitoyl])C-NH2
modifications: disulfide 6-11 (inferred)
B27: Compd ID 151 (peptide)
peptide: DTHXPCIKXKXX
modifications: Isovaleric acid-DTH-[Dpa]-PCI-[(D)Lys]-[b-hPhe]-[Lys(Ahx-Palm)]-[Dap]-[N-Me-Cys]-NH2
B28: Compd ID 168 (peptide)
peptide: DTHXPCIKFKKC
modifications: Isovaleric_Acid-D-T-H-bhPhe-(D)Pro-C-I-(D)Lys-F-[Lys_Peg11_Palm]-(D)Lys-C-NH2
B29: Compd ID 26 (peptide)
peptide: Isovaleryl-DTHFPCI[dK]FK([PEG2′-γGlu-Palmitoyl])C-NH2
modifications: disulfide 6-11 (inferred)
B30: Compd ID 21 (peptide)
peptide: Isovaleryl-DTHFPCI[dK]FK([PEG8′-Palmitoyl])C-NH2
modifications: disulfide 6-11 (inferred)
B31: Compd ID 158 (peptide)
peptide: DTHXPCIKXKKC
modifications: Isovaleric acid-DTH-[Dpa]-PCI-[(D)Lys]-[b-hPhe]-[Lys(IsoGlu-Palm)]-[(D)Lys]-C-NH2
B32: Compd ID 68 (peptide)
peptide: Isovaleryl-DTHFPCI[dK]FK([PEG12-Palmitoyl])C-NH2
modifications: cysteine pairing not given here
B33: Compd ID 24 (peptide)
peptide: Isovaleryl-DTHFPCI[dK]FK([PEG1′-Palmitoyl])C-NH2
modifications: disulfide 6-11 (inferred)
B34: Compd ID 165 (peptide)
peptide: DTHXPCIKXKKC
modifications: Isovaleric acid-DTH-[Dpa]-PCI-[(D)Lys]-[b-hPhe]-[Lys(Ahx-Palm)]-[(D)Lys]-C-NH2
B35: Compd ID 23 (peptide)
peptide: Isovaleryl-DTHFPCI[dK]FK([PEG2′-Palmitoyl])C-NH2
modifications: disulfide 6-11 (inferred)
B36: Compd ID 154 (peptide)
peptide: DTHXPCIKXKKC
modifications: Isovaleric acid-DTH-[Dpa]-PCI-[(D)Lys]-[b-hPhe]-[Lys-Peg11]-[(D)Lys]-C-NH2
B37: Compd ID 147 (peptide)
peptide: Isovaleryl-DTH[Dip]PCII[β3hF]K([PEG12-Palmitoyl])[dK]C-NH2
modifications: disulfide 6-12 (inferred)
B38: Compd ID 152 (peptide)
peptide: DTHXPCIKXKKC
modifications: Isovaleric acid-DTH-[Dpa]-PCI-[(D)Lys]-[b-hPhe]-[Lys(Ac)]-[(D)Lys]-C-NH2
B39: Compd ID 153 (peptide)
peptide: DTHXPCIKXKKC
modifications: Isovaleric acid-DTH-[Dpa]-PCI-[(D)Lys-Peg11*]-[b-hPhe]-[Lys(Peg11-Palm)]-[(D)Lys-Peg11*]-C-NH2 (*PEG11-OMe)
B40: Compd ID 159 (peptide)
peptide: DTHXPCIKXKKC
modifications: Isovaleric acid-DTH-[Dpa]-PCI-[(D)Lys-Ac]-[b-hPhe]-[Lys(Peg11-Palm)]-[(D)Lys-Ac]-C-NH2
B41: Compd ID 148 (peptide)
peptide: Isovaleryl-DTH[Dip]PCI[β3hF]K([PEG12-Palmitoyl])[dK]C-NH2
modifications: disulfide 6-11 (inferred)
B42: Compd ID 20 (peptide)
peptide: Isovaleryl-DTHFPCIKWK([PEG12-Palmitoyl])C-NH2
modifications: disulfide 6-11 (inferred)
B43: Compd ID 155 (peptide)
peptide: DTHXPCIKXKKC
modifications: Isovaleric acid-DTH-[Dpa]-PCI-[(D)Lys]-[b-hPhe]-[Lys(Peg11-Octane)]-[(D)Lys]-C-NH2
B44: Compd ID 167 (peptide)
peptide: DTHXPCIKFKKC
modifications: Isovaleric Acid-D-T-H-[Dpa]-(D)Pro-C-I-(D)Lys-F-[Lys_Peg11_Palm]-(D)Lys-C-NH2
B45: Compd ID 22 (peptide)
peptide: Isovaleryl-DTHFPCI[dK]FK([PEG4′-Palmitoyl])C-NH2
modifications: disulfide 6-11 (inferred)
B46: Compd ID 146 (peptide)
peptide: Isovaleryl-DTH[Dip]PCI[dA][β3hF]K([PEG12-Palmitoyl])[dK]C-NH2
modifications: disulfide 6-12 (inferred)

The target in the assay is T1, human ferroportin (SLC40A1) fused with …. The assay can be described thus: cell-based or functional assay.
As to B1, the “FPN IC50” value turned out to be 10 nM.

Take B2: the “FPN IC50” value is 30 nM. Next, B3: 8 nM; B4: 4 nM. Next, B5: 22 nM; B6: 35 nM; B7: 9 nM. Take B8: the “FPN IC50” value came to 347 nM.

Turning to B9, the “FPN IC50” value came out at 8 nM.

In the case of B10, the “FPN IC50” value was determined as 5 nM. In the case of B11, the “FPN IC50” value stood at 13 nM. Turning to B12, the “FPN IC50” value stood at 6 nM. Next, B13: 7 nM. Next, B14: 30 nM; B15: 4 nM.

With B16, the “FPN IC50” value came out at 31 nM.

On to B17, for which the “FPN IC50” value stood at 125 nM. With B18, the “FPN IC50” value turned out to be 17 nM. Under B19 stands 16 nM; under B20, 2 nM. Under B21 stands 6 nM. As for B22, the “FPN IC50” value turned out to be 2 nM. For the molecule B23, the “FPN IC50” value was determined as 4 nM.

Regarding B24, the “FPN IC50” value was 3 nM. Under B25 stands 11 nM.

For the molecule B26, the “FPN IC50” value stood at 23 nM. Under B27 stands 28.5 nM; under B28, 54 nM; under B29, 13 nM. Under B30 stands 30 nM; under B31, 6 nM. On to B32, for which the “FPN IC50” value worked out at 12 nM. Next, B33: 17 nM.

As to B34, the “FPN IC50” value is 6 nM.

Regarding B35, the “FPN IC50” value stood at 40 nM.

Turning to B36, the “FPN IC50” value worked out at 404 nM. For the molecule B37, the “FPN IC50” value was 24 nM.

For the molecule B38, the “FPN IC50” value worked out at 146 nM.

Take B39: the “FPN IC50” value was 19 nM. Turning to B40, the “FPN IC50” value amounted to 4 nM. As for B41, the “FPN IC50” value is 12 nM. As for B42, the “FPN IC50” value stood at 4 nM. For the molecule B43, the “FPN IC50” value was determined as 279 nM. Under B44 stands 81 nM; under B45, 17 nM; under B46, 11 nM.
